Source: US20210130436A1 (published 2021)

How the values were obtained:
[1] = biological target: T1, human PD-L1 (human, UniProt Q9NZQ7 19-290); assay: flow cytometry on CHO cells stably expressing PD-L1
T1 construct: also called huPD-L1; CD274
T1 sequence (Q9NZQ7 19-290): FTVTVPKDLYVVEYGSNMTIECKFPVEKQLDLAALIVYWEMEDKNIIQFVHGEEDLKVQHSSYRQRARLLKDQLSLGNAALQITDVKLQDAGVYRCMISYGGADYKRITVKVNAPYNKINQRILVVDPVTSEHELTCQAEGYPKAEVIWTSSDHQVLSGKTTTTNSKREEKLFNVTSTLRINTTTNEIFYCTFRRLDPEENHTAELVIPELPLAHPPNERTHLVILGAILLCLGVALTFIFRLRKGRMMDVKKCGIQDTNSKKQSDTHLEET

[2] = biological target: T2, human CTLA-4 (human, UniProt P16410 36-223); assay: flow cytometry on CHO cells stably expressing CTLA4
T2 construct: also called huCTLA4
T2 sequence (P16410 36-223): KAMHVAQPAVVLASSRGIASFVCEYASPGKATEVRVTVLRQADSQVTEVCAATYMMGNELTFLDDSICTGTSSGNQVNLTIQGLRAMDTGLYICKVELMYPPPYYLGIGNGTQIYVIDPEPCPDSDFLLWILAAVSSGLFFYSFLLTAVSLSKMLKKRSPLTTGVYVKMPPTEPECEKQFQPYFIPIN

[3] = biological target: T1, human PD-L1; assay: cell-based or functional assay
[4] = biological target: T3, human CD28 (human, UniProt P10747 19-220); assay: flow cytometry on Jurkat cells (CD28)
T3 construct: Endogenous CD28 on Jurkat/IL2 reporter cells

[5] = biological target: T2, human CTLA-4; assay: flow cytometry on CHO cells stably expressing CTLA4; vs CD80 WT IgV-Fc
[6] = biological target: T1, human PD-L1; assay: flow cytometry on CHO cells stably expressing PD-L1; vs CD80 WT IgV-Fc
[7] = biological target: T1, human PD-L1; assay: flow cytometry; PD-L1 MFI over CD28 MFI
[8] = biological target: T3, human CD28; assay: flow cytometry on Jurkat cells (CD28); vs CD80 WT IgV-Fc
[9] = biological target: T4, human PD-L1 (human, UniProt Q9NZQ7 19-290); assay: flow cytometry; MFI on CHO/PD-L1 over MFI on Jurkat (CD28), 33.3 nM
T4 construct: whole, on cells; also called huPD-L1
T4 sequence (Q9NZQ7 19-290): as the sequence (Q9NZQ7 19-290) above

[10] = biological target: T4, human PD-L1; assay: flow cytometry, CHO cells stably expressing huPD-L1, 33.3 nM, PE anti-human Fc
[11] = biological target: T5, human CD28 (human, UniProt P10747 19-220); assay: flow cytometry, Jurkat/IL2 reporter cells (endogenous CD28), 33.3 nM, PE anti-human Fc
T5 construct: whole, on cells; Endogenous CD28 of Jurkat/IL2 reporter cells

[12] = biological target: T6, human CTLA-4 (human, UniProt P16410 36-223); assay: flow cytometry, CHO cells stably expressing huCTLA4, 33.3 nM, PE anti-human Fc
T6 construct: whole, on cells; also called huCTLA4
T6 sequence (P16410 36-223): as the sequence (P16410 36-223) above

[13] = biological target: T7, human CTLA4 (human, UniProt P16410 36-223); assay: flow cytometry, CHO cells expressing huCTLA4
T7 construct: also called huCTLA4

[14] = biological target: human CD28 (human, UniProt P10747 19-220); assay: flow cytometry, Jurkat/IL2 reporter cells (endogenous CD28)
[15] = biological target: T8, human PD-L1 (human, UniProt Q9NZQ7 19-290); assay: flow cytometry, CHO cells expressing huPD-L1
T8 construct: also called huPD-L1; CD274
T8 sequence (Q9NZQ7 19-290): as the sequence (Q9NZQ7 19-290) above

T7 sequence (P16410 36-223): as the sequence (P16410 36-223) above

Row | Binder | MFI at 33.3 nM [1] [MFI] | MFI at 33.3 nM [2] [MFI] | Fold Increase over WT CD80-IgV-Fc, Jurkat/IL2 + CHO/OKT3/PD-L1 Reporter Assay [3] [fold] | RLU, Jurkat/IL2 + CHO/OKT3/PD-L1 Reporter Assay, CD80 Conc 5.0 nM [3] [RLU] | MFI at 33.3 nM [4] [MFI] | Fold change to WT CD80 [5] [fold] | Fold change to WT CD80 [6] [fold] | Ratio of PDL1:CD28 [7] [ratio] | Fold change to WT CD80 [8] [fold] | Ratio of PDL1:CD28 [9] [ratio] | Fold change to WT [10] [fold] | MFI at 33.3 nM [10] [MFI] | Fold change to WT [11] [fold] | MFI at 33.3 nM [11] [MFI] | Fold change to WT CD80 [12] [fold] | MFI at 33.3 nM [12] [MFI] | MFI at 33.3 nM [13] [MFI] | MFI at 33.3 nM [14] [MFI] | MFI at 33.3 nM [15] [MFI]
1 | CD80 E35D/M47V/N48K/V68M/K89N IgV-Fc, delta linker (Fc fusion, Fused directly to the Fc with no additional linker; also called E35D/M47V/N48K/V68M/K89N delta) VIHVTKEVKEVATLSCGHNVSVEELAQTRIYWQKDKKMVLTMMSGDVKIWPEYKNRTIFDITNNLSIMILALRPSDEGTYECVVLKYENDAFKREHLAEVTLSVKTHTCPPCPAPEAEGAPSVFLFPPKPKDTLMISRTPEVTCVVVDVSHEDPEVKFNWYVDGVEVHNAKTKPREEQYNSTYRVVSVLTVLHQDWLNGKEYKCKVSNKALPAPIEKTISKAKGQPREPQVYTLPPSREEMTKNQVSLTCLVKGFYPSDIAVEWESNGQPENNYKTTPPVLDSDGSFFLYSKLTVDKSRWQQGNVFSCSVMHEALHNHYTQKSLSLSPG | 20400 | 3090 | 2.63 | 1030 | 4680 | 2.6 | 439 | 4 | 83.7 |  |  |  |  |  |  |  |  |  | 
2 | Q33R/M47V/T62N/A71G CD80 IgV-Fc (Fc fusion, not shown: a dimerising Fc or GST) VIHVTKEVKEVATLSCGHNVSVEELAQTRIYWRKEKKMVLTMMSGDVNIWPEYKNRTIFDINNNLSIVILGLRPSDEGTYECVVLKYEKDAFKREHLAEVTLSVKAD |  |  |  |  |  |  |  |  |  | 719 | 146 | 12200 |  |  | 0.3 | 308 |  |  | 
3 | H18Y/V22A/E35D/T41S/M47V/T62N/A71G/A91G CD80 IgV-Fc (Fc fusion, not shown: a dimerising Fc or GST) VIHVTKEVKEVATLSCGYNVSAEELAQTRIYWQKDKKMVLSMMSGDVNIWPEYKNRTIFDINNNLSIVILGLRPSDEGTYECVVLKYEKDGFKREHLAEVTLSVKAD |  |  |  |  |  |  |  |  |  | 5 | 101 | 8460 | 38.5 | 1590 | 10 | 10300 |  |  | 
4 | E35D/M47L/V68M/A71G/L85Q/D90G CD80 IgV-Fc (Fc fusion, not shown: a dimerising Fc or GST) VIHVTKEVKEVATLSCGHNVSVEELAQTRIYWQKDKKMVLTMMSGDLNIWPEYKNRTIFDITNNLSIMILGLRPSDEGTYECVVQKYEKGAFKREHLAEVTLSVKAD |  |  |  |  |  |  |  |  |  | 12 | 202 | 16800 | 33.9 | 1400 | 10.1 | 10300 |  |  | 
5 | variant CD80 IgV-Fc H18Y/A26E/E35D/D90G (Fc fusion, not shown: small tags and cut ends; a dimerising Fc or GST) VIHVTKEVKEVATLSCGYNVSVEELEQTRIYWQKDKKMVLTMMSGDMNIWPEYKNRTIFDITNNLSIVILALRPSDEGTYECVVLKYEKGAFKREHLAEVTLSVKAD |  |  |  |  |  |  |  |  |  |  |  |  |  |  |  |  |  |  | 10000
6 | E35D/D46E/M47L/V68M/L85Q/F92L CD80 IgV-Fc (Fc fusion, not shown: a dimerising Fc or GST) VIHVTKEVKEVATLSCGHNVSVEELAQTRIYWQKDKKMVLTMMSGELNIWPEYKNRTIFDITNNLSIMILALRPSDEGTYECVVQKYEKDALKREHLAEVTLSVKAD |  |  |  |  |  |  |  |  |  | 863 | 158 | 13200 |  |  | 0.2 | 214 |  |  | 
7 | S15T/H18Y/E35D/M47V/T62A/N64S/A71G/L85Q/D90N CD80 IgV-Fc (Fc fusion, not shown: a dimerising Fc or GST) VIHVTKEVKEVATLTCGYNVSVEELAQTRIYWQKDKKMVLTMMSGDVNIWPEYKNRTIFDIANSLSIVILGLRPSDEGTYECVVQKYEKNAFKREHLAEVTLSVKAD |  |  |  |  |  |  |  |  |  | 13 | 166 | 13900 | 25.9 | 1070 | 10.7 | 11000 |  |  | 
8 | CD80 E35D/M47V/N48K/V68M/K89N IgV-Fc, EAAAK linker (Fc fusion, not shown: a dimerising Fc or GST) VIHVTKEVKEVATLSCGHNVSVEELAQTRIYWQKDKKMVLTMMSGDVKIWPEYKNRTIFDITNNLSIMILALRPSDEGTYECVVLKYENDAFKREHLAEVTLSVKADEAAAK | 22900 | 27500 | 4.38 | 1710 | 2630 | 23 | 491 | 9 | 47.1 |  |  |  |  |  |  |  |  |  | 
9 | CD80 E35D/D46V/M47L/V68M/L85Q/E88D IgV-Fc, EAAAK linker (Fc fusion, not shown: a dimerising Fc or GST) VIHVTKEVKEVATLSCGHNVSVEELAQTRIYWQKDKKMVLTMMSGVLNIWPEYKNRTIFDITNNLSIMILALRPSDEGTYECVVQKYDKDAFKREHLAEVTLSVKADEAAAK | 24800 | 29000 | 3.75 | 1460 | 563 | 24.2 | 533 | 44 | 10.1 |  |  |  |  |  |  |  |  |  | 

The next lines start with the values.

Row | MFI at 33.3 nM [1] [MFI] | MFI at 33.3 nM [2] [MFI] | Fold Increase over WT CD80-IgV-Fc, Jurkat/IL2 + CHO/OKT3/PD-L1 Reporter Assay [3] [fold] | RLU, Jurkat/IL2 + CHO/OKT3/PD-L1 Reporter Assay, CD80 Conc 5.0 nM [3] [RLU] | MFI at 33.3 nM [4] [MFI] | Fold change to WT CD80 [5] [fold] | Fold change to WT CD80 [6] [fold] | Ratio of PDL1:CD28 [7] [ratio] | Fold change to WT CD80 [8] [fold] | Ratio of PDL1:CD28 [9] [ratio] | Fold change to WT [10] [fold] | MFI at 33.3 nM [10] [MFI] | Fold change to WT [11] [fold] | MFI at 33.3 nM [11] [MFI] | Fold change to WT CD80 [12] [fold] | MFI at 33.3 nM [12] [MFI] | MFI at 33.3 nM [13] [MFI] | MFI at 33.3 nM [14] [MFI] | MFI at 33.3 nM [15] [MFI] | Binder
10 | 22500 | 12200 | 2.77 | 1080 | 4170 | 10.2 | 484 | 5 | 74.7 |  |  |  |  |  |  |  |  |  |  | CD80 E35D/D46V/M47L/V68M/L85Q/E88D IgV-Fc, delta linker (Fc fusion, Fused directly to the Fc with no additional linker; also called E35D/D46V/M47L/V68M/L85Q/E88D delta) VIHVTKEVKEVATLSCGHNVSVEELAQTRIYWQKDKKMVLTMMSGVLNIWPEYKNRTIFDITNNLSIMILALRPSDEGTYECVVQKYDKDAFKREHLAEVTLSVKTHTCPPCPAPEAEGAPSVFLFPPKPKDTLMISRTPEVTCVVVDVSHEDPEVKFNWYVDGVEVHNAKTKPREEQYNSTYRVVSVLTVLHQDWLNGKEYKCKVSNKALPAPIEKTISKAKGQPREPQVYTLPPSREEMTKNQVSLTCLVKGFYPSDIAVEWESNGQPENNYKTTPPVLDSDGSFFLYSKLTVDKSRWQQGNVFSCSVMHEALHNHYTQKSLSLSPG
11 |  |  |  |  |  |  |  |  |  | 44 | 34.3 | 2860 | 1.6 | 66 | 13.5 | 13900 |  |  |  | E24D/Q27R/E35D/T41S/M47V/L85Q CD80 IgV-Fc (Fc fusion, not shown: a dimerising Fc or GST) VIHVTKEVKEVATLSCGHNVSVEDLARTRIYWQKDKKMVLSMMSGDVNIWPEYKNRTIFDITNNLSIVILALRPSDEGTYECVVQKYEKDAFKREHLAEVTLSVKAD
12 |  |  |  |  |  |  |  |  |  |  |  |  |  |  |  |  | 19900 | 2000 |  | variant CD80 IgV-Fc H18Y/A26E/A71G/D90G (Fc fusion, not shown: small tags and cut ends; a dimerising Fc or GST) VIHVTKEVKEVATLSCGYNVSVEELEQTRIYWQKEKKMVLTMMSGDMNIWPEYKNRTIFDITNNLSIVILGLRPSDEGTYECVVLKYEKGAFKREHLAEVTLSVKAD
13 | 22400 | 26600 | 5.26 | 2050 | 143 | 22.2 | 481 | 157 | 2.6 |  |  |  |  |  |  |  |  |  |  | CD80 E35D/D46V/M47L/V68M/L85Q/E88D IgV-Fc, GS(G4S)5 linker (Fc fusion, not shown: a dimerising Fc or GST) VIHVTKEVKEVATLSCGHNVSVEELAQTRIYWQKDKKMVLTMMSGVLNIWPEYKNRTIFDITNNLSIMILALRPSDEGTYECVVQKYDKDAFKREHLAEVTLSVKADGSGGGGSGGGGSGGGGSGGGGSGGGGS
14 | 25500 | 32000 | 5.25 | 2050 | 197 | 26.8 | 546 | 129 | 3.5 |  |  |  |  |  |  |  |  |  |  | CD80 E35D/D46V/M47L/V68M/L85Q/E88D IgV-Fc, (EAAAK)3 linker (Fc fusion, not shown: a dimerising Fc or GST) VIHVTKEVKEVATLSCGHNVSVEELAQTRIYWQKDKKMVLTMMSGVLNIWPEYKNRTIFDITNNLSIMILALRPSDEGTYECVVQKYDKDAFKREHLAEVTLSVKADEAAAKEAAAKEAAAK
15 | 47 | 1200 | 1 | 390 | 56 | 1 | 1 | 1 | 1 |  |  |  |  |  |  |  |  |  |  | wild-type CD80 IgV-Fc (inert) with GSG4S linker, Example 16 (Fc fusion, also called CD80 WT IgV-Fc) VIHVTKEVKEVATLSCGHNVSVEELAQTRIYWQKEKKMVLTMMSGDMNIWPEYKNRTIFDITNNLSIVILALRPSDEGTYECVVLKYEKDAFKREHLAEVTLSVKADGSGGGGSEPKSSDKTHTCPPCPAPEAEGAPSVFLFPPKPKDTLMISRTPEVTCVVVDVSHEDPEVKFNWYVDGVEVHNAKTKPREEQYNSTYRVVSVLTVLHQDWLNGKEYKCKVSNKALPAPIEKTISKAKGQPREPQVYTLPPSREEMTKNQVSLTCLVKGFYPSDIAVEWESNGQPENNYKTTPPVLDSDGSFFLYSKLTVDKSRWQQGNVFSCSVMHEALHNHYTQKSLSLSPG
